We go through 1 substance from publication PMC3682478.

The target of the assay is E. coli RNA polymerase in elongating complexes and paused transcription complexes (transcription assays) (E. coli) (UniProt P0A7Z4).
Sequence of E. coli RNA polymerase in elongating complexes and paused transcription complexes (transcription assays) (E. coli) (P0A7Z4 whole entry, chain 1 of 3): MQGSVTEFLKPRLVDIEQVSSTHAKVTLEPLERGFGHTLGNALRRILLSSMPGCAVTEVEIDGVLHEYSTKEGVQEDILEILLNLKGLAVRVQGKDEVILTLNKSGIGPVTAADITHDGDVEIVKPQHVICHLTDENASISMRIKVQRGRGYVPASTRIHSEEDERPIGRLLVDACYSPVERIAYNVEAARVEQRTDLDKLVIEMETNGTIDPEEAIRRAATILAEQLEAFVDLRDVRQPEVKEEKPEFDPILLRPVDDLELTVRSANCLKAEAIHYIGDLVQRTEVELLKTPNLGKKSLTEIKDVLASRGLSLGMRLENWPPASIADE
Sequence of E. coli RNA polymerase in elongating complexes and paused transcription complexes (transcription assays) (E. coli) (P0A8V2 whole entry, chain 2 of 3, further chain): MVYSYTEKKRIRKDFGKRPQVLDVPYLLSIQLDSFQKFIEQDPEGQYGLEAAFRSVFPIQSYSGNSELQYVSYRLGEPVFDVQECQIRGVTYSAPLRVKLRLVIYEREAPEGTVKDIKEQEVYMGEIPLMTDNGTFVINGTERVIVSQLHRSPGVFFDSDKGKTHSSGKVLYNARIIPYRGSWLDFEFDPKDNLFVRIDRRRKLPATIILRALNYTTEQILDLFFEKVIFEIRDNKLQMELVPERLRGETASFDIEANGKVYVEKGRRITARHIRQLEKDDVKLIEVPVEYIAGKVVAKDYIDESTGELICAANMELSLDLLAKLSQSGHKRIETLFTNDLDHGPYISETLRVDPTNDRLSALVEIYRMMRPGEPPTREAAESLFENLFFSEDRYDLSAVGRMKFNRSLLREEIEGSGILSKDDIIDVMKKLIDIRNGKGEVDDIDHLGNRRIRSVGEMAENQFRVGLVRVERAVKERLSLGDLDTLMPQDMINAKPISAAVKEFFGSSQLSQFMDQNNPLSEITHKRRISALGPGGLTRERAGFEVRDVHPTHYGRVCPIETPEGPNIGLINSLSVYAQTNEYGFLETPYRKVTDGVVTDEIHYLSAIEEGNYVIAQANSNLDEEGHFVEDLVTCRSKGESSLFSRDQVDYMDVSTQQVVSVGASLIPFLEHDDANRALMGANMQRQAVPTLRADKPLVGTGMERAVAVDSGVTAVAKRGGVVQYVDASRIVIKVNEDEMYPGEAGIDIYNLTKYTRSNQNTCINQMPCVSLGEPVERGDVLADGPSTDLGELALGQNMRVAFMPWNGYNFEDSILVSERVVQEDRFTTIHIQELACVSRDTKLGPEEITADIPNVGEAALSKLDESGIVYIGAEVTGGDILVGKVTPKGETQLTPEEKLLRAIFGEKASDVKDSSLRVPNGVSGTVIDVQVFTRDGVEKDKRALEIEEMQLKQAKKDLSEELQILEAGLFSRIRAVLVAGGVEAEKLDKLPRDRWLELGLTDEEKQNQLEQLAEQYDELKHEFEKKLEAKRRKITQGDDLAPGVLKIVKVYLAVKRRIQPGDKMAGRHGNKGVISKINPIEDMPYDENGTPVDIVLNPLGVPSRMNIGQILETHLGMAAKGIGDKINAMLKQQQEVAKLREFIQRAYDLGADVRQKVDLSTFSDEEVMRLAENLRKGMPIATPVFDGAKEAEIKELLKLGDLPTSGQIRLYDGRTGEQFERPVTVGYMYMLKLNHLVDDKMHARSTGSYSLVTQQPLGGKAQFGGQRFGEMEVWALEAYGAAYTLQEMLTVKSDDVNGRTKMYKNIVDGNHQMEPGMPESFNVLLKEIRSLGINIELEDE
Sequence of E. coli RNA polymerase in elongating complexes and paused transcription complexes (transcription assays) (E. coli) (P0A8T7 whole entry, chain 3 of 3, further chain): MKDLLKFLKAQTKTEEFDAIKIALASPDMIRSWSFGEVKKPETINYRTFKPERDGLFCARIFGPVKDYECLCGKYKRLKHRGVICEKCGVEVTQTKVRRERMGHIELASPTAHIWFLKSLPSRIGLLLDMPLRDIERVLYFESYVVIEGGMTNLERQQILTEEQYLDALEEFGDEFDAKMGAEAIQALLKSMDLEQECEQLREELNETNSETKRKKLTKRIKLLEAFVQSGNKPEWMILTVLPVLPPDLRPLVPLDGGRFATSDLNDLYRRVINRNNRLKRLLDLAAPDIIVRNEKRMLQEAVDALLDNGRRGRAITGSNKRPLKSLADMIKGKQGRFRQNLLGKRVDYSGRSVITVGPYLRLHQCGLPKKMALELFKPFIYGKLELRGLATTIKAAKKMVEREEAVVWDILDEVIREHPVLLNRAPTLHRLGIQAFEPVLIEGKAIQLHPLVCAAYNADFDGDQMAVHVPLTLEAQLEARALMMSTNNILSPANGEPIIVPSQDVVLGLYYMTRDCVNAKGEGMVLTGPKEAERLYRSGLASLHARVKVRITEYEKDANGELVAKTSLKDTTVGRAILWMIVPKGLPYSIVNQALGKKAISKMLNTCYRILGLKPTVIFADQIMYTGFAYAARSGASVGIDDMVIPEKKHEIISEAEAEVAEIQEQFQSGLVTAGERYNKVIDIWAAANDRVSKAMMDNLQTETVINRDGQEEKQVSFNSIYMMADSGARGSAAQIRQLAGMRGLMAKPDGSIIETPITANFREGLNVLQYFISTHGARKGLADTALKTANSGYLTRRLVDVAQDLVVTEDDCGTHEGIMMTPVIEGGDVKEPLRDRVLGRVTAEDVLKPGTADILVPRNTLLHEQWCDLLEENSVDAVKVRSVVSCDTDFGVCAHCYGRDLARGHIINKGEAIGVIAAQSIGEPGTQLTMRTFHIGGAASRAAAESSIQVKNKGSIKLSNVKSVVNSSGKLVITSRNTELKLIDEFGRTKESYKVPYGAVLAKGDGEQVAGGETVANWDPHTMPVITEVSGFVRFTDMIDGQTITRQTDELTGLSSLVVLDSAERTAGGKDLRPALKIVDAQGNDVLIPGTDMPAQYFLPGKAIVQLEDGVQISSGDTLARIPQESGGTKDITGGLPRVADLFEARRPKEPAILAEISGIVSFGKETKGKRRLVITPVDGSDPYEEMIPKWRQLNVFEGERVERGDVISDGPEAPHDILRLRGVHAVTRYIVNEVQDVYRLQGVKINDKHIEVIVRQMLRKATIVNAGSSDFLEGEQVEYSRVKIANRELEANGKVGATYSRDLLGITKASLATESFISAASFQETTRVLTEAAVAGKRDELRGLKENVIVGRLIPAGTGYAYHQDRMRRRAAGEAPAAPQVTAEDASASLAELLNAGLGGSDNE

In the case of “NusA NTD with N-terminal deletion, Δ(3-18) NTD (from UniProt P0AFF6 1-137) (domain or fragment)”, the maximal pause stimulation k0/kNusA, his pause, scaffold came out at 1.27.
